Measurements as given in the NTF2 design screens of Basanta et al. (2020).

Experiment: protease stability score; higher = more stable; yeast display proteolysis, trypsin and chymotrypsin;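 further: relative to predicted unfolded state with 0 unfolded-like and 1 meaning tenfold more protease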

Sequence | protease stability score
DEEEHNSQYAEELHIHLQETGDFEEFKKNVDPHVRLHSEINGKELRLHGRKIAEWLIEFWIKRIPNATIELHDSSIYNGKMHLDQRIKIGDKSMIVIVILEKVNGVWRVREMHITVR | 1.37
DEEEHRIIRFIKKVLDDIVTGDWDSFRRNLDPNAKLSAEFEGRREEHVGRDIATRWMREIRIHDMEIKDMRLIDGVNIVKGHFDGRINGQRIRTDTEIWLYVVDGRITSVTIHII | 0.776
DEEEHRLRHFSELFTELFKTGDWKTFAKLMDPEVRTHSEWNGQEFSDHGMEAIVHFFKEFVDKFKNLTFHLTRIEVQGDKVHIDTILIFNGKTFTTRLEFIVVNGRIKEVRYHVK | 1.13
DEEEHRVENMYHRWLHLWETGNEERLTELLDPNTRIVVGDKQIHGREEAHRVLQEFLKRADHIEEFRIHHLRVVGNKVESDTRLRGEIDGRDIDTRVHVHLLVIDGRLREINIQLE | 1.57
DEEEHSAEHAIRILIELLYTGDEDQLERFMDPNTRLHIYFEGHEIHHHGMELISEIFSEIIHRIKNITYRVEDFHLVNGRVHLHGRWNINGKRTKEHWVVLKVDGVWILERVHIHIQ | 1.27
DEEEHSLRLALKILIHTRRTGDEHLLTEMADPNTRLDVNGVEVHGMEIFSKLTHEVVKRADHVEVHVKHIDIYGDKIRVHSEINYRQGDKEHSEKVHLVIKKFNGRWILHFVHIG | 1.48
DEEEHSYEWAHKVSRHTTETGNEDLSRELADPNVRVIIGDKEYHGWKFMTHLLAHLRIKHIIIRSIRVQGNKLDLNEEVHGEIDGKDETFKLDLVILKVNGRWVIKSVRVE | 0.612
DEEEHTAHVAHKLWEDSLHTGNEDNHRKLLDPHARIIVNGRLLHGWEDVEKILKDLGIKVMHMELERIKVVGDKLRIVGHLETRFDGRTIRLREELVVRKFNGRWHIEEINIL | 1.24
DEEEHVAWKIMEVFLEDLLTGDEDMLNRMADPHVRVIINGRENHGRESFEEFVRQIRIEDTRLKHVEIRTIGNKIHIYVHGELRLNINGKRIDRKTTWIFVIQKYDGRWILRFILIDIH | 2.31
DEEEHWAKEFLKIESEAMMTGDEESLIELIDPDARIQIGDKKYHGMEFVKYLFEQERKKLGIERVHVEFELKEIHYQGNYMIVDGIIRRSYGDKTETRRVIIYLIKFDGQWVIESIQFL | 0.863
DEEEHWLKHWTDLHLFARITGDEELLMKMLDPDVRFHIGDKESHGREEVARLLIELWIHNQHVRRRIIVNGVSHIHGELDGEINGVRHRTEIEIHILVIDGRIHEIIIKVH | 1.24
DEEEHYLREYLRIVDEELHTGDEKLLAKLLDPEVRVDFNGVVNIGWETVRRHVHHIWMIFRDSKIHDVKVQGDKMIADGRVDVEIIVNGRTHRLELDTNLIFRKVNGRWVMQEIKIG | 2.25
DEEEIALKRIVELWLEVIETGDERITEHLLDPRARFEFENHSRHGRKELTRWMTQLGIKYLDLHRMHIRVFDGRLHVHIDGTEIYDGVRRKSEIRMDVLKVDGKWLVEEYSIRFK | 1.25
DEEEIEIRRIWERELHWRSTGDEKSLIELMDPRTIIEINGREIHGREEADRHVHEFAEKYKNVRVRYFVREIEVQGEFVHVHTEITLDFDGVEIRFFMILIILKIDGRWLSHRVIVH | 0.81
DEEEIHNRLAYRLSHELLETGDWHLMILLADPHVRFEDENHEAHGREEYKEHLNEIHELLGLEKFEVRIHSWRVYDGRVIVHGHILFNGVEFNVETVSLKFNGRWIIEEQRLE | 1.36
DEEEKAHEHMLRVLLHLERTGNEKALTEMADPNVRIDWNGKEDHGMEHLLRHLREIRIKNFELTDERHQGDKIELRGRLHGFIGDKHIILEVELVWRKVNGRWQLTSMHIK | 1.45
DEEEKALDHAWRRFLETLKTGDERKFHELLDPNVQIDWNGRKLHGMHLIVDIIRRVKNLKSHEIHIRHITVIGDKVEFRSDIRGTVDGVDTEIHTRYLFLKIDGQWVLHHEEIV | 2.22
DEEEKATHEAIEEIIETLRTGDEHIMRELMDPHVKVVQGDKEHHGRESFIKWMRLWFERAGVDQIDMRIKDHDSQGEKITLDGSLYVNGVEIDTHIISHKINGRWLNRSVIIQ | 1.22

Sequence | protease stability score
DEEEKAVKHAVERFVESTQTGNEHKLNELMDPNVRIDFNGVELIGREWFSKLLSEIRSDRFHIHDIRLQGEKADNDTREKGHVDGRTTEMTVRLIWIKFDGKWRLETVIFQ | 1.01
DEEEKDAIMLSEISTHLMSTGDEHETSHNADPNTRLEYGDFEFHGREEFIKIWVEQMEKVKGMTIRLHSIHVQGDKAVSHVKIHVNGVDFHIIYIAEKFNGRWQLRSSIVI | 1.06
DEEEKDAKEIFRLSHDWWRTGDEMLIHMNFDPNVRLRIGDKSSHGREDVARIIVKVYKDFGVKHFEIREVDHQGEKIKLDGVSNFNGKEVKIEISSNKVNGVWVIKEVNIQ | 1.11
DEEEKDIRKALEWFWESFKTGDEDSVRKMLDPDTRIIYGDKEHHGRENASRFIHELKRRMGIKHTEIRLNSMEVQGDKVSFYTILILRFDGREIRIETHIEARKVDGRWFTTSIEFH | 1.42
DEEEKDMRHVLKLWVNEFLTGNEKNLSELMDPNVRVDIDGKQLHGRETLSHKIVEDAREARVRLEVESIRVVNGKAHVDVVLRFHQGDKSDHREIRVVFRKVDGRWLLHSLEVH | 1.37
DEEEKDVQKILKIMIESMKTGDEHTIERLVDPHVRLIINGKRLHGWELFVKIVHHEAEHARVDEIRIDHMHVIDGRAHLYLTIKRTVGDKHIKLDLEFIWSKFDGRWHVEEERRE | 1.14
DEEEKDVRFFIKLLVHSLRTGDERALKHLLDPNVRMDINGREKIGWHQLRELLEEWRMHDIHITSVEVQGEKLFSHGLLEGVIGDKRVELEVEHTARKIDGRWIYTEVKFR | 1.32
DEEEKEAEDFFHDWVHSMLTGDEDTLRRMIDPHVKIQVGDKEFHGMKWATRMYREIRIEDMRLRRVHVINGKADIHSITHTNINGRQEDIHITIIIEKVDGRWILRSVIIR | 2.13
DEEEKEAKHASERINHDFLTGDWKSLEKLADPETRLIVNGRDFHGRERVLHELVRFYHELGVNHFRIRDIRVIGNKIHVDNQIDVGEKHNEMHVISSKVNGRWVLHTVELN | 1.23
DEEEKEAREALEEFIRSVHTGDEDHMVWMFDPNTRIEVGDKKLHGRELAEEFAERWKKHIRLEDVNLTEVHVQGEKVHIRGILHGTVGDKEVRRESEVMMLKVDGRWFLHSIKFK | 0.463
DEEEKEATHYLELFWKLKETGDWDELHRLLDPNVRLRINGKDVHGMERVTEEHLKRMKEIRIRHYHLDELRVQGDFVHIDVRVNGEIDGKRNMIEFHFHARKVDGRWFLHEVRIR | 1.79
DEEEKEAVRHWELFMKAELTGDEEKLKNLADPNTRILFNGVEQIGWEELIRKLREIRIKLHDYRVHQVDRIDGRVILDFRVDIILYVGDKFFKHEIRVHVFILKYDGKWILEYEEIK | 0.736
DEEEKEAYIWLELLLEHERTGNEEEIMHLADPHTRLQFNGVESHGRERFFEHVRHKIRHMRVEIRIRNFEFQGEYAHLHGEDILRIGDKTERIDMRFVLLVVNGRIKSIHIHVH | 0.694
DEEEKEDHKMLHDFIHLWLTGDEEDWSHLADPRTRLILIQGDKVIDRHGMELASEELRRILEEMRVDDFKVEHVEVINGKSKVHGKTDVTFNGKREIIDIHIELHVVNGRMKTVKMVWI | 0.927
DEEEKEFEFAEQVLKESLLTGDERTLKELMDPHVRLEQGDKLYIGRESFIKWWSKRREELGINHLHYRIKEVHIVNGRVRVNSHIEIIIGDKRHEEKVHFVLLKINGRWLMESVHME | 1.46
DEEEKEIKEMLHEYLRAVETGDEHTLHRLMDPHVRIDVNGRQVVGREEWLKILRELGIKVSELIFRDIKFQGDKVNIDAEERLHYNGRTVTTRVTITAWKYDGRWTVQSKKVD | 2.04
DEEEKEIRHQAEHWFHIILTGDEDTLRNLADPNVRSVWVIGDYERHEHGMDEHNKILKEWRFEEYRRDSIHAINGRVHLDIRSVMTINGKRMSFRIHIDIHVVNGVRKSITIRIE | 0.702
DEEEKEMKEALHEQKRSHETGDERVLEELIDPNVRLDINGREHHGREEAIRLWHELGIDHFDIRDFRVVNGRAHIDGHMVINGQRVDVTLIVHKINGRWRQHHIVVR | 0.04
